Test results reported in publication PMC8034861.

Molecular target: Alexa Fluor 488-PR30 peptide (human)
Assay: single-molecule TIRF motility assay, co-transport of peptide foci with motors; 1 μM fluorescent PR30 with KIF5B::GFP or TMR-dynein-dynactin-BICD2N on immobilised microtubules; motility buffer with 25 mM KCl, α-casein, 5 mM MgATP; 23 ± 1°C; foci of PR30 moving with processive motors scored on kymographs

Chain of Alexa Fluor 488-PR30 peptide (human) (peptide, as listed by the source): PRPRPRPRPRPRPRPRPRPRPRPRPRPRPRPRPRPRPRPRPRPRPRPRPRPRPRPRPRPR

“TMR-dynein-dynactin-BICD2N complex (from UniProt Q14204 1-4646; A0A287B8J2 1-1281)” showed a percent of processive motor complexes transporting large foci of PR30 of 8.1%.
